Experiments:
ET140-p25 (human) = target: T1, ET140-p25 (human); experiment: peptide ELISA on streptavidin plate, antibody 1 ug/mL
T1 sequence (peptide, N-terminal biotin): SGSGLRCSSNTPPLTCQRY

ET140-p26 (human) = target: T2, ET140-p26 (human); experiment: as above
T2 sequence (peptide, N-terminal biotin): SGSGRCSSNTPPLTCQRYC

- A450 (ET140-p25 (human)): 0.583
- A450 (ET140-p26 (human)): 0.225
B1: ET140-153 mIgG1 (antibody, V domains shown)
VH: QVQLVQSGAEVKKPGSSVKVSCKASGGTFSSYAISWVRQAPGQGLEWMGRIIPILGIANYAQKFQGRVTITADKSTSTAYMELSSLRSEDTAVYYCARGGYYSHDMWSEDWGQGTLVTVSS
VL: LPVLTQPPSASGTPGQRVTISCSGRSSNIGSNSVNWYRQLPGAAPKLLIYSNNQRPPGVPVRFSGSKSGTSASLAISGLQSEDEATYYCATWDDNLNVHYVFGTGTKVTVLG

— patent US20210346432A1
